Laboratory results as given in patent US20240036057A1, “DNA APTAMERS FOR THE DETECTION OF MONOMERIC CRP” (Universiteit Hasselt, published 2024).

B1: AmC3 (ssDNA)
DNA: GCACCAGCATATTCGATTGGGAGCGCGGGGGAGAGTAGTGGGGAACGGTGGAGAGTTGGGCTAGTAGGTGCATCAG
B2: AmC4 (ssDNA)
DNA: GCACCAGCATATTCGATTGGGAGGTGTGAACGTTATGTGGTAGAGAGATGGGTGGTGGGGCTAGTAGGTGCATCAG
B3: AmC2 (ssDNA)
DNA: GCACCAGCATATTCGATTGTGGCGGGTTGTGAAGGGTGGAGTATGGTCGTGTTGGTTGGGCTAGTAGGTGCATCAG

What was measured:
[1] = biological target: T1, monomeric C-reactive protein (mCRP) (Homo sapiens, UniProt P02741 P02741:19-224); assay: SPR; 200 nM aptamer; 75 mM HEPES, 0.15 M NaCl pH 7.4
T1 sequence: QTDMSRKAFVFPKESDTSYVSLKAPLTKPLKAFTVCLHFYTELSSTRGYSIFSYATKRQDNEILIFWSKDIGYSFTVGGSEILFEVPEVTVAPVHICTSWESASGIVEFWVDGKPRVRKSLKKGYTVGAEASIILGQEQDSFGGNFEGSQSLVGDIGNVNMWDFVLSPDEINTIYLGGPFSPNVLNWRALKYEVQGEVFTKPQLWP
Experimental: Regeneration of the CM4 chip flow cells was achieved by applying 10 mM NaOH with 120 sec followed by several washing steps with 1× aptamer binding buffer. SPR binding concentrations were obtained as a resonance unit RU (1 RU=1 pg/mm² of the sensor surface) by calculating the binding units of antibody/aptamer and mCRP and correcting for the background signal observed in the reference channel.

[2] = biological target: T1, monomeric C-reactive protein (mCRP); assay: SPR; mCRP immobilized on CM4, pCRP reference cell; 1:1 Langmuir; ka 4.242E+03 1/Ms, kd 6.41E-04 1/s; aptamer binding buffer pH 7.4
Experimental: On the contrary the aptamer was very stable regeneration steps and therefore a multicycle kinetics analysis was performed for the evaluation of reaction kinetics of the aptamer. Pentameric CRP is immobilized in the reference flow cell and mCRP in the active cell at a low immobilization level (70 RU) to achieve an optimal kinetic analysis on CM4 biosensor chips. The kinetic analysis was performed with increasing concentrations of aptamer AmC2 (0-500 nM) applying for 200 sec of association and 200 sec dissociation at flow rate of 300 μl/min. A regeneration step of 120 sec using 1 M NaOH was applied between the injections of different concentrations. The Biacore evaluation software was used in the analysis for estimation of affinity rate constant by fitting the obtained binding sensogram using standard mathematical 1:1 Langmuir model.
The kinetic parameters of the antibody 3H12 and aptamer AmC2 were evaluated using the inbuilt kinetics modules of the Biacore T200 SPR (FIG. 2). […] The strength of the binding interaction between the ligand and target analyte can be measured based on the affinity constant value KD. […] The binding kinetics of the ligand to the target analyte is a time dependent interaction and in SPR this is measured as the association and dissociation constants (ka and kd). […]

Row | Binder | binding result [1] | Kd [2]
1 | B1 | binds | –
2 | B2 | binds | –
3 | B3 | – | 0.151 µM
